{"source": "paper PMC11871226", "about": "(Nature Communications, 2025)", "biological_target": "Purified human ACSS2 (bacterially expressed) (human, UniProt Q9NR19 1-701)", "sequence (Q9NR19 whole entry)": "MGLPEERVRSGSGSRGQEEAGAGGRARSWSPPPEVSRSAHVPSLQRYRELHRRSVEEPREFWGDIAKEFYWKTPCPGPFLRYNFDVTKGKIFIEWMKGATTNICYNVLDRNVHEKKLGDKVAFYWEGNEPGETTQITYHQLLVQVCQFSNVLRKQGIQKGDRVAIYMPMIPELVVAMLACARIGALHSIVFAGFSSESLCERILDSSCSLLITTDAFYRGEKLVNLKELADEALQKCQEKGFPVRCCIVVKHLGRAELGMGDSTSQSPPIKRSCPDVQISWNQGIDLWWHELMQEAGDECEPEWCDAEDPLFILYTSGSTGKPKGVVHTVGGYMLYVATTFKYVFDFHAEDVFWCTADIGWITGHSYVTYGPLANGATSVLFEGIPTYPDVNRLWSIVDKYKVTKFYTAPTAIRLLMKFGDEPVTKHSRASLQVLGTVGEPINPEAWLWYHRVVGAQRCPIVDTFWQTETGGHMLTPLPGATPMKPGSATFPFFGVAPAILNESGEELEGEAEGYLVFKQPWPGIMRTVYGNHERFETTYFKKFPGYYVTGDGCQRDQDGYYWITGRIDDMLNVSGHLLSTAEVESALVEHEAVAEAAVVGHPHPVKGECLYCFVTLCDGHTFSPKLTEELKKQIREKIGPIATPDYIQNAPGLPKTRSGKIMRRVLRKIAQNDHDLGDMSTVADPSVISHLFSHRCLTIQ", "test": "pull-down"}
{"binder": "Purified human PAICS (bacterially expressed) (natural protein, UniProt P22234 1-425, looked up) MATAEVLNIGKKLYEGKTKEVYELLDSPGKVLLQSKDQITAGNAARKNHLEGKAAISNKITSCIFQLLQEAGIKTAFTRKCGETAFIAPQCEMIPIEWVCRRIATGSFLKRNPGVKEGYKFYPPKVELFFKDDANNDPQWSEEQLIAAKFCFAGLLIGQTEVDIMSHATQAIFEILEKSWLPQNCTLVDMKIEFGVDVTTKEIVLADVIDNDSWRLWPSGDRSQQKDKQSYRDLKEVTPEGLQMVKKNFEWVAERVELLLKSESQCRVVVLMGSTSDLGHCEKIKKACGNFGIPCELRVTSAHKGPDETLRIKAEYEGDGIPTVFVAVAGRSNGLGPVMSGNTAYPVISCPPLTPDWGVQDVWSSLRLPSGLGCSTVLSPEGSAQFAAQIFGLSNHLVWSKLRASILNTWISLKQADKKIRECNL", "values": [{"measurement": "binding result", "value": "binds"}]}
